Assay: Western blot (data not shown)
Conditions: glycan lost; control: wild-type NOS1AP

Substance	expression_or_secretion
NOS1AP (CAPON): S47A	no change
NOS1AP (CAPON): S183A	no change
NOS1AP (CAPON): S204A	no change
NOS1AP (CAPON): S269A	no change
NOS1AP (CAPON): S271A	no change

— article PMC4519966
